Data reported in US20260209325A1 (SCHOLAR ROCK, published 2026).

Legend:
murine pro-myostatin = molecular target: T1, murine pro-myostatin (mouse, UniProt O08689 25-376, biotinylated (in the SPR assay)); experiment: SPR Biacore 8K, biotin-antigen captured
T1 construct: also called proGDF8 (mouse); mouse pro-myostatin

cyno pro-myostatin = molecular target: T2, cyno pro-myostatin (cynomolgus monkey, Biotinylated for capture in the SPR assay (site not stated). The native form is a disulfide-linked homodimer, partly furin-cleaved; one chain is given.); experiment: SPR Biacore 8K, biotin-antigen captured
T2 construct: also called proGDF8 (cynomolgus); cynomolgus monkey pro-myostatin

human pro-myostatin [1] = molecular target: T3, human pro-myostatin (human, UniProt O14793 24-375, biotinylated (in the SPR assay)); experiment: SPR Biacore 8K, biotin-antigen captured
T3 construct: Disulfide-linked homodimer; also called proGDF8 (human)

human GDF-11 = human GDF-11 (human, UniProt O95390 299-407, limits assumed); experiment: plate binding assay, OD 450 nm, one antibody concentration that is not given, on Hu-GDF-11 (method not described in the text)
mouse GDF-11 = mouse GDF-11 (mouse, UniProt Q9Z1W4 297-405, limits assumed); experiment: plate binding assay, OD 450 nm, one antibody concentration that is not given, on Mu-GDF-11 (method not described in the text)
[2] = molecular target: T4, recombinant human latent myostatin (human, UniProt O14793 24-375, biotinylated (in the Octet pH assay only)); experiment: cell-based or functional assay
human pro-myostatin [3] = molecular target: T3, human pro-myostatin; experiment: cell-based or functional assay
[4] = molecular target: T4, recombinant human latent myostatin; experiment: cell-based or functional assay; remark: listed apart in the source
human pro-myostatin [5] = molecular target: T3, human pro-myostatin; experiment: Ab KD, summary Table 11; method and antigen not stated there

Chain of human GDF-11 (O95390 299-407 limits assumed): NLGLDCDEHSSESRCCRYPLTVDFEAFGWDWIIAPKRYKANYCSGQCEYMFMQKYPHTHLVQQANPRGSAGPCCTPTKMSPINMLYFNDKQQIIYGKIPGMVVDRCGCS
Chain of mouse GDF-11 (Q9Z1W4 297-405 limits assumed): as the sequence (O95390 299-407 limits assumed) above

| Binder | Kd (murine pro-myostatin) | koff (murine pro-myostatin) | kon (murine pro-myostatin) | Kd (cyno pro-myostatin) | koff (cyno pro-myostatin) | kon (cyno pro-myostatin) | Kd (human pro-myostatin [1]) | koff (human pro-myostatin [1]) | kon (human pro-myostatin [1]) | binding result (human GDF-11) | binding result (mouse GDF-11) | IC50 (nM) Latent + mTLL2 [2] | IC50 (nM) Pro + Furin (human pro-myostatin [3]) | mTLL2 IC50 [4] | Kd (human pro-myostatin [5]) |
| --- | --- | --- | --- | --- | --- | --- | --- | --- | --- | --- | --- | --- | --- | --- | --- |
| Ab115 (antibody, human IgG4 S228P, kappa, V domains shown) VH: QVQLVQSGAEVKKPGASVKVSCKVSGYAFTNYNIHWVRQAPGKGLEWMGGINPRTGGTIYAQKFQGRVTMTEDTSTDTAYMELSSLKSEDTAVYYCAKDIYTGVAVAGSGMDYWGQGTLVTVSS VL: DIQMTQSPSSVSASVGDRVTITCRASQGISTHLAWYQQKPGKAPKLLIYGASNLESGVPSRFSGSGSGTDFTLTISSLQPEDFANYYCQQANSFPWTFGGGTKVEIKR | 3.05 nM | 0.00137 s⁻¹ | 450000 M⁻¹ s⁻¹ | 3.13 nM | 0.00139 s⁻¹ | 443000 M⁻¹ s⁻¹ | 3.04 nM | 0.00123 s⁻¹ | 406000 M⁻¹ s⁻¹ | no binding | no binding | 2.94 nM | 6.01 nM | – | – |
| Ab114 (antibody, human IgG4 S228P, kappa, V domains shown) VH: QVQLVQSGAEVKKPGASVKVSCKVSGGTFRSYTIHWVRQAPGKGLEWMGGMNPSSGHTIYAQKFQGRVTMTEDTSTDTAYMELSSLKSEDTAVYYCARGLDYGEGYYYYGMDVWGQGTTVTVSS VL: DIQMTQSPSSVSASVGDRVTITCRASQGISESLAWYQQKPGKAPKLLIYSASSLESGVPSRFSGSGSGTDFTLTISSLQPEDFANYYCQQGYSSPPYTFGGGTKVEIKR | 6.29 nM | 0.0208 s⁻¹ | 3.31e+06 M⁻¹ s⁻¹ | 2.6 nM | 0.00908 s⁻¹ | 3.49e+06 M⁻¹ s⁻¹ | 1.74 nM | 0.00735 s⁻¹ | 4.23e+06 M⁻¹ s⁻¹ | no binding | no binding | 3.3 nM | 2.8 nM | – | – |
| Ab112 (antibody, human IgG4 S228P, kappa, V domains shown) VH: QVQLVQSGAEVKKPGASVKVSCKVSGGTFGIYAIHWVRQAPGKGLEWMGGTIPVFGTAIYAQKFQGRVTMTEDTSTDTAYMELSSLKSEDTAVYYCASLTGIAAAGTHPARGGMDVWGQGTTVTVSS VL: DIQMTQSPSSVSASVGDRVTITCRASPSISSYLAWYQQKPGKAPKLLIYAASRLQSGVPSRFSGSGSGTDFTLTISSLQPEDFANYYCQEYLSFPLTFGGGTKVEIKR | 0.748 nM | 0.000188 s⁻¹ | 251000 M⁻¹ s⁻¹ | 0.601 nM | 0.000124 s⁻¹ | 207000 M⁻¹ s⁻¹ | 0.561 nM | 0.000122 s⁻¹ | 217000 M⁻¹ s⁻¹ | no binding | no binding | 9.22 nM | 1.08 nM | 9.22 nM | 3.56 nM |
| Ab129 (antibody, human IgG4 S228P, kappa, V domains shown) VH: QVQLVQSGAEVKKPGASVKVSCKVSGFNYPRSAIHWVRQAPGKGLEWMGGINPSGEATIYAQKFQGRVTMTEDTSTDTAYMELSSLKSEDTAVYYCARDSSPQWLVTAGVYFYGMDVWGQGTTVTVSS VL: DIQMTQSPSSVSASVGDRVTITCRASQSISNWLAWYQQKPGKAPKLLIYHASTLQSGVPSRFSGSGSGTDFTLTISSLQPEDFANYYCQQYSSTPWTFGGGTKVEIKR | 4.24 nM | 0.000496 s⁻¹ | 117000 M⁻¹ s⁻¹ | 1.3 nM | 0.000534 s⁻¹ | 411000 M⁻¹ s⁻¹ | 2.2 nM | 0.000307 s⁻¹ | 140000 M⁻¹ s⁻¹ | – | – | 3.89 nM | 4.31 nM | – | – |
| Ab141 (antibody, human IgG4 S228P, kappa, V domains shown) VH: EVQLVESGGGLVQPGGSLRLSCAASGFTFSSYGMSWVRQAPGKGLELVASFTGSGGAYYPDSVKGRFTISRDNAKNSLYLQMNSLRAEDTAVYYCARDLLIRFLEWSHYYGMDVWGQGTTVTVSS VL: DIVMTQSPLSLPVTPGEPASISCRSSQSLLHSSGHNFLHWYLQKPGQSPQLLIYEVSNRVSGVPDRFSGSGSGTDFTLKISRVEAEDVGVYYCMQQTQYPGTFGGGTKVEIKR | 0.0531 nM | 0.000156 s⁻¹ | 2.93e+06 M⁻¹ s⁻¹ | 0.0369 nM | 0.000103 s⁻¹ | 2.8e+06 M⁻¹ s⁻¹ | 0.04 nM | 0.000112 s⁻¹ | 2.79e+06 M⁻¹ s⁻¹ | – | – | 0.139 nM | – | 0.139 nM | 0.04 nM |
| Ab101 (antibody, human IgG4 S228P, kappa, V domains shown) VH: EVQLVESGGGLVQPGGSLRLSCAASGSAFSSYGMSWVRQAPGKGLELVASINSNGGSTYYPDSVKGRFTISRDNAKNSLYLQMNSLRAEDTAVYYCARDLLVRFLEWSHYYGMDVWGQGTTVTVSS VL: DIVMTQSPLSLPVTPGEPASISCRSSQSLLHSSGHNFLHWYLQKPGQSPQLLIYEVSNRVSGVPDRFSGSGSGTDFTLKISRVEAEDVGVYYCMQQTQYPPTFGGGTKVEIKR | 0.083 nM | 0.00036 s⁻¹ | 4.34e+06 M⁻¹ s⁻¹ | 0.065 nM | 0.000317 s⁻¹ | 4.84e+06 M⁻¹ s⁻¹ | 0.078 nM | 0.000339 s⁻¹ | 4.37e+06 M⁻¹ s⁻¹ | – | – | 0.128 nM | 0.251 nM | – | – |
| Ab108 (antibody, human IgG4 S228P, kappa, V domains shown) VH: EVQLVESGGGLVQPGGSLRLSCAASGSAFSSYGMSWVRQAPGKGLELVASINSNGGSTYYPDSVKGRFTISRDNAKNSLYLQMNSLRAEDTAVYYCARDLLVGFLQWSHYYGMDVWGQGTTVTVSS VL: DIVMTQSPLSLPVTPGEPASISCRSSQSLLHSSGHNFLHWYLQKPGQSPQLLIYEVSNRVSGVPDRFSGSGSGTDFTLKISRVEAEDVGVYYCMQQTQYPPTFGGGTKVEIKR | 0.218 nM | 0.00183 s⁻¹ | 8.42e+06 M⁻¹ s⁻¹ | 0.159 nM | 0.00102 s⁻¹ | 6.39e+06 M⁻¹ s⁻¹ | 0.177 nM | 0.00105 s⁻¹ | 5.92e+06 M⁻¹ s⁻¹ | – | – | 0.237 nM | 0.27 nM | – | – |
| Ab103 (antibody, human IgG4 S228P, kappa, V domains shown) VH: EVQLVESGGGLVQPGGSLRLSCAASGYTFSSYGMSWVRQAPGKGLELVASITGDAGRTYYPDSVKGRFTISRDNAKNSLYLQMNSLRAEDTAVYYCARDTLVRFLEWSHYYGMDVWGQGTTVTVSS VL: DIVMTQSPLSLPVTPGEPASISCRSSQSLLHSSGHNFLHWYLQKPGQSPQLLIYEVSNRVSGVPDRFSGSGSGTDFTLKISRVEAEDVGVYYCMQQTQYPPTFGGGTKVEIKR | 0.379 nM | 0.00221 s⁻¹ | 5.83e+06 M⁻¹ s⁻¹ | 0.252 nM | 0.00154 s⁻¹ | 6.09e+06 M⁻¹ s⁻¹ | 0.261 nM | 0.00151 s⁻¹ | 5.78e+06 M⁻¹ s⁻¹ | – | – | 0.506 nM | 0.413 nM | – | – |
| Ab134 (antibody, human IgG4 S228P, kappa, V domains shown) VH: EVQLVESGGGLVQPGGSLRLSCAASGSAFSSYGMSWVRQAPGKGLELVASINSNGGSTYYPDSVKGRFTISRDNAKNSLYLQMNSLRAEDTAVYYCARDLLVEFLKWSHYYGMDVWGQGTTVTVSS VL: DIVMTQSPLSLPVTPGEPASISCRSSQSLLHSSGHNFLHWYLQKPGQSPQLLIYEVSNRVSGVPDRFSGSGSGTDFTLKISRVEAEDVGVYYCMQQTQYPPTFGGGTKVEIKR | – | – | – | – | – | – | – | – | – | – | – | 0.631 nM | – | – | – |
| Ab107 (antibody, human IgG4 S228P, kappa, V domains shown) VH: EVQLVESGGGLVQPGGSLRLSCAASGSAFSSYGMSWVRQAPGKGLELVASINSNGGSTYYPDSVKGRFTISRDNAKNSLYLQMNSLRAEDTAVYYCARDQLVRFLEWSHYYGMDVWGQGTTVTVSS VL: DIVMTQSPLSLPVTPGEPASISCRSSQSLLHSSGHNFLHWYLQKPGQSPQLLIYAGSNRPSGVPDRFSGSGSGTDFTLKISRVEAEDVGVYYCAHATQLPHTFGGGTKVEIKR | 0.057 nM | 0.000455 s⁻¹ | 8.04e+06 M⁻¹ s⁻¹ | 0.054 nM | 0.000316 s⁻¹ | 5.85e+06 M⁻¹ s⁻¹ | 0.06 nM | 0.000319 s⁻¹ | 5.34e+06 M⁻¹ s⁻¹ | – | – | 0.135 nM | 0.195 nM | – | – |
| Ab124 (antibody, human IgG4 S228P, kappa, V domains shown) VH: QVQLQESGPGLVKPSQTLSLTCTVSGGSISSSPYSWSWIRQPPGKGLEWIGYVDLAGSTDYNPSLKSRVTMSVDTSKNQFSLKVNSVTAADTAVYYCARALSSRSSEWLLDQYTMDVWGQGTTVTVSS VL: EIVMTQSPATLSLSPGERATLSCRASQSIGINLAWYQQKPGQAPRLLIYGVSNRATGIPARFSGSGSGTDFTLTISSLEPEDFAVYYCQQYGTARLTFGGGTKVEIKR | 3.26 nM | 0.000454 s⁻¹ | 139000 M⁻¹ s⁻¹ | – | – | – | – | – | – | – | – | 1.43 nM | – | – | – |
| Ab128 (antibody, human IgG4 S228P, kappa, V domains shown) VH: EVQLVESGGGLVQPGGSLRLSCTASGFTLSSYSMDWVRQAPGKGLEWVSYITGSGDTTYYADSVKGRFTISRDNAKNTLYLQMNSLRAEDTAVYYCARGFGWISGWAEDYFDYWGQGTLVTVSS VL: DIQMTQSPSSLSASVGDRVTITCQASQSVYSYLNWYQQKPGKAPKLLIYGASRLEGGVPSRFSGSGSGTDFTFTISSLQPEDIATYYCQQHSTDQRTFGGGTKVEIKR | 0.716 nM | 0.000655 s⁻¹ | 914000 M⁻¹ s⁻¹ | 0.814 nM | 0.000736 s⁻¹ | 905000 M⁻¹ s⁻¹ | 0.365 nM | 0.000463 s⁻¹ | 1.27e+06 M⁻¹ s⁻¹ | no binding | no binding | 1.03 nM | 0.774 nM | – | – |
